Experimental data reported in patent publication US20190322765A1 (Hoffmann-La Roche, published 2019).
Positions count from the first letter of the chain named. Names and notes keep the numbering of the source. Values joined by “and” are separate entries in the source; they are usually repeats but may differ in a detail not shown here. Equal entries are not always repeated.

B1: human IL-2R α-subunit, monomeric, with AcTev cleavage site and Avi His tag (receptor)
chain: ELCDDDPPEIPHATFKAMAYKEGTMLNCECKRGFRRIKSGSLYMLCTGNSSHSSWDNQCQCTSSATRNTTKQVTPQPEEQKERKTTEMQSPMQPVDQASLPGHCREPPPWENEATERIYHFVVGQMVYYQCVQGYRALHRGPAESVCKMTHGKTRWTQPQLICTGVDEQLYFQGGSGLNDIFEAQKIEWHEARAHHHHHH
notes: also called Hu IL-2R α; CD25
B2: 4B9 Fab (Fab, V domains shown)
VH: EVQLLESGGGLVQPGGSLRLSCAASGFTFSSYAMSWVRQAPGKGLEWVSAIIGSGASTYYADSVKGRFTISRDNSKNTLYLQMNSLRAEDTAVYYCAKGWFGGFNYWGQGTLVTVSS
VL: EIVLTQSPGTLSLSPGERATLSCRASQSVTSSYLAWYQQKPGQAPRLLINVGSRRATGIPDRFSGSGSGTDFTLTISRLEPEDFAVYYCQQGIMLPPTFGQGTKVEIK
B3: 14B3 Fab (Fab, V domains shown)
VH: B2 VH with I52L, G53A, S57I
VL: EIVLTQSPGTLSLSPGERATLSCRASQSVTSSYLAWYQQKPGQAPRLLINVGSRRATGIPDRFSGSGSGTDFTLTISRLEPEDFAVYYCQQGIMLPPTFGQGTKVEIKR
notes: Cleaved Fab fragment
B4: 28H1 IgG (antibody, V domains shown)
VH: EVQLLESGGGLVQPGGSLRLSCAASGFTFSSHAMSWVRQAPGKGLEWVSAIWASGEQYYADSVKGRFTISRDNSKNTLYLQMNSLRAEDTAVYYCAKGWLGNFDYWGQGTLVTVSS
VL: B2 VL with T30S, S31R, N50I, V51G, G52A, R54T, I93Q, M94V, L95I
notes: also called unmodified 28H1 IgG antibody
B5: 4G8 IgG (antibody, V domains shown)
VH: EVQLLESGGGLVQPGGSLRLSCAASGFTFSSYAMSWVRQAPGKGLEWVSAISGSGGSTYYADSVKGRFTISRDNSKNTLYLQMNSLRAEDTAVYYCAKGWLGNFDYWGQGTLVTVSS
VL: B2 VL with T30S, S31R, N50I, V51G, G52A, R54T, I93Q, M94V, L95I
B6: 29B11 Fab (Fab, V domains shown)
VH: B2 VH with A56G, S57I
VL: B3 VL
notes: Cleaved Fab fragment
B7: 4B9 Fab-IL-2 qm-Fab (other)
chain: EVQLLESGGGLVQPGGSLRLSCAASGFTFSSYAMSWVRQAPGKGLEWVSAIIGSGASTYYADSVKGRFTISRDNSKNTLYLQMNSLRAEDTAVYYCAKGWFGGFNYWGQGTLVTVSSASTKGPSVFPLAPSSKSTSGGTAALGCLVKDYFPEPVTVSWNSGALTSGVHTFPAVLQSSGLYSLSSVVTVPSSSLGTQTYICNVNHKPSNTKVDKKVEPKSCDSGGGGSGGGGSGGGGAPASSSTKKTQLQLEHLLLDLQMILNGINNYKNPKLTRMLTAKFAMPKKATELKHLQCLEEELKPLEEVLNGAQSKNFHLRPRDLISNINVIVLELKGSETTFMCEYADETATIVEFLNRWITFAQSIISTLTSGGGGSGGGGSGGGGEVQLLESGGGLVQPGGSLRLSCAASGFTFSSYAMSWVRQAPGKGLEWVSAIIGSGASTYYADSVKGRFTISRDNSKNTLYLQMNSLRAEDTAVYYCAKGWFGGFNYWGQGTLVTVSSASTKGPSVFPLAPSSKSTSGGTAALGCLVKDYFPEPVTVSWNSGALTSGVHTFPAVLQSSGLYSLSSVVTVPSSSLGTQTYICNVNHKPSNTKVDKKVEPKSCD
light: EIVLTQSPGTLSLSPGERATLSCRASQSVTSSYLAWYQQKPGQAPRLLINVGSRRATGIPDRFSGSGSGTDFTLTISRLEPEDFAVYYCQQGIMLPPTFGQGTKVEIKRTVAAPSVFIFPPSDEQLKSGTASVVCLLNNFYPREAKVQWKVDNALQSGNSQESVTEQDSKDSTYSLSSTLTLSKADYEKHKVYACEVTHQGLSSPVTKSFNRGEC
notes: Fab-IL-2-Fab immunoconjugate against FAP with quadruple mutant IL-2
B8: 14B3 Fab-IL-2 qm-Fab (other)
chain: B7 chain with I52L, G53A, S57I, I436L, G437A, S441I
light: B7 light
notes: as for B7
B9: 3F2 Fab (Fab, V domains shown)
VH: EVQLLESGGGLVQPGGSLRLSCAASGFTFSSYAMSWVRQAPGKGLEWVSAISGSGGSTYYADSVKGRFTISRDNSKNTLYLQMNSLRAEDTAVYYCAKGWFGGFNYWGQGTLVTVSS
VL: B3 VL
B10: 4G8 Fab (Fab, V domains shown)
VH: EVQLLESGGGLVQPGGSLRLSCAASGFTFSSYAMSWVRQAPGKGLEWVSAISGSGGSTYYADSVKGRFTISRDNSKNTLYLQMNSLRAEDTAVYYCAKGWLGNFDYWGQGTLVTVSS
VL: B3 VL with T30S, S31R, N50I, V51G, G52A, R54T, I93Q, M94V, L95I
B11: 28H1 Fab (Fab, V domains shown)
VH: B4 VH
VL: B3 VL with T30S, S31R, N50I, V51G, G52A, R54T, I93Q, M94V, L95I
notes: Cleaved Fab fragment
B12: Naked IL-2 qm (quadruple mutant T3A/F42A/Y45A/L72G, His-tagged) (ligand)
chain: APASSSTKKTQLQLEHLLLDLQMILNGINNYKNPKLTRMLTAKFAMPKKATELKHLQCLEEELKPLEEVLNGAQSKNFHLRPRDLISNINVIVLELKGSETTFMCEYADETATIVEFLNRWITFAQSIISTLTVDHHHHHH
notes: also called naked IL-2 quadruple mutant; quadruple mutant IL-2

How the values were obtained:
[1] = target: T1, Proleukin (Novartis/Chiron), commercially available wild-type IL-2 (UniProt P60568 22-153); test: SPR, receptor on CM5, IL-2 analyte, 25°C, kinetic
T1 sequence (P60568 other isoform, or with tags, fused parts or gaps limits assumed, form in doubt): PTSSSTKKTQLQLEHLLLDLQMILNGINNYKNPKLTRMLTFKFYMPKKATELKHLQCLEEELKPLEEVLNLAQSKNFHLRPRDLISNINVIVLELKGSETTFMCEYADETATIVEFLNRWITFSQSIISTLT
Experimental: (§1) Subsequently, affinity for the IL-2R βγ heterodimer and the IL-2R α-subunit were determined by surface plasmon resonance (SPR). Briefly, the ligand—either human IL-2R α-subunit (Fc2) or human IL2-R β knob γ hole heterodimer (Fc3)—was immobilized on a CM5 chip. […] Flow rate was 30 l/min and the following conditions were applied for association: 180s, dissociation: 300 s, and regeneration: 2×30 s 3M MgCl₂ for IL2-R β knob γ hole heterodimer, 10 s 50 mM NaOH for IL-2R α-subunit.

[2] = target: T1, Proleukin (Novartis/Chiron), …; test: SPR, receptor on CM5, IL-2 analyte, 25°C, steady state
Experimental: as §1

human FAP-His [3] = target: T2, human FAP-His (human, UniProt Q12884 27-760); test: SPR, FAP-His captured via anti-His, Fab analyte, 1:1 fit, 25°C
T2 construct: also called Hu FAP; His-tagged human FAP; not shown: His tag

cynomolgus FAP-His [4] = target: cynomolgus FAP-His (cynomolgus); test: as above
Experimental: The FAP binding activity of the cleaved Fab fragments used in these examples as antigen binding, moieties was determined by surface plasmon resonance (SPR) on a Biacore machine. […] Temperature was 25° C. and HBS-EP was used as buffer. […] Fitting was performed based on a 1:1 binding model, RI=0, Rmax=local (because of capture format).

murine FAP-His = target: T3, murine FAP-His (murine, UniProt P97321 27-761); test: as above
T3 construct: not shown: His tag

human FAP-His [5] = target: T2, human FAP-His; test: SPR, His-tagged human FAP captured via anti-His, apparent bivalent affinity (avidity), 25°C
Experimental: Temperature was 25° C. and HBS-EP was used as buffer. Analyte concentration was 50 nM down to 0.05 nM at a flow rate of 50 μl/min (association: 300 s, dissociation: 900 s, regeneration: 60 s, with 10 mM glycine pH 2). Fitting was performed based on a 1:1 binding model, RI=0, Rmax=local (because of capture format).

[6] = target: T4, human FAP expressed on stably transfected HEK293 cells (human, UniProt Q12884 1-760); test: FACS on HEK 293-human FAP cells, median fluorescence against concentration
T4 construct: whole, on cells
Experimental: Briefly, 250 000 cells per well were incubated with the indicated concentration of the immunoconjugates in a round-bottom 96-well plate, incubated for 30 min at 4° C., and washed once with PBS/0.1% BSA.

[7] = target: T5, human DPPIV on transfected HEK 293 cells (human, UniProt P27487 1-766); test: FACS on HEK 293-human DPPIV cells, with HEK mock-transfected cells, cells only and sec. antibody as controls; concentration not shown
T5 construct: whole, on cells; also called CD26

[8] = target: FAP on GM05389 fibroblasts; test: FACS on GM05389 fibroblasts, surface-bound construct detected with secondary antibody after the times shown (internalization analysis); concentration not shown
human FAP-His [9] = target: T2, human FAP-His; test: SPR, FAP-His captured via anti-His, Fab analyte, steady state, 25°C
cynomolgus FAP-His [10] = target: cynomolgus FAP-His (cynomolgus); test: as above
[11] = target: B1; test: SPR, receptor on CM5, kinetic
[12] = target: T6, human IL-2R βγ heterodimer, subunit-Fc knobs-into-holes fusion (human); test: SPR, receptor on CM5, IL-2 analyte, 25°C, kinetic
T6 construct: The entries may hold a leader peptide; also called Hu IL-2R βγ; human IL2-R β knob γ hole heterodimer
Experimental: as §1

Binder | Kd (human FAP-His [3]) | Kd (cynomolgus FAP-His [4]) | Kd (murine FAP-His) | also measured
B1 |  |  |  | Kd [1]: 7.5 nM and 12.5 nM; Kd [2]: 19 nM and 17.8 nM
B2 | 0.3 nM and 0.31 nM | 0.23 nM and 0.24 nM | 5 nM and 5.2 nM | 
B3 | 0.47 nM | 0.59 nM and 0.61 nM | 4.7 nM | 
B4 |  |  |  | Kd (human FAP-His [5]): 0.2 nM
B5 |  |  |  | Kd (human FAP-His [5]): 0.05 nM
B6 | 0.19 nM | 0.21 nM and 0.2 nM | 1.3 nM and 1.2 nM | 
B7 |  |  |  | binding result [6]: binds; binding result [7]: no binding; binding result [8]: binds
B8 |  |  |  | EC50 (read off the curve) [6]: ~20 nM; binding result [7]: no binding; binding result [8]: binds
B9 | 6 nM | 4.7 nM and 5.3 nM | 8.9 nM and 9.5 nM | 
B10 | 53 nM and 51 nM | 33 nM and 35 nM | 0.07 nM | Kd (human FAP-His [9]): 48 nM; Kd (cynomolgus FAP-His [10]): 33 nM and 34 nM
B11 | 2.6 nM |  | 0.13 nM and 0.18 nM | 
B12 |  |  |  | binding result [11]: no binding (tested: 300 nM); Kd [12]: 2.7 nM and 2 nM
